# Measured values from US20140087995A1 (published 2014).
# Numbered stars: 1 amine (or outer) side, 2 acyl side, 3 side chain; on linkers, the order of the positions; unused ones are H or OH. Bridge positions count the residues as written; N and C are the ends. * marks the point of attachment. C20 diacid = O=C(O)CCCCCCCCCCCCCCCCCCC(=O)*; γGlu = O=C(O)[C@H](CCC(=O)[*:2])N[*:1]; AEEA = NCCOCCOCC(=O)O
# T1: human amylin 3(a) receptor (human calcitonin receptor plus RAMP-3) (human, UniProt P30988 25-474; O60896 24-148, limits assumed)
# T1 sequence (looked up) 1: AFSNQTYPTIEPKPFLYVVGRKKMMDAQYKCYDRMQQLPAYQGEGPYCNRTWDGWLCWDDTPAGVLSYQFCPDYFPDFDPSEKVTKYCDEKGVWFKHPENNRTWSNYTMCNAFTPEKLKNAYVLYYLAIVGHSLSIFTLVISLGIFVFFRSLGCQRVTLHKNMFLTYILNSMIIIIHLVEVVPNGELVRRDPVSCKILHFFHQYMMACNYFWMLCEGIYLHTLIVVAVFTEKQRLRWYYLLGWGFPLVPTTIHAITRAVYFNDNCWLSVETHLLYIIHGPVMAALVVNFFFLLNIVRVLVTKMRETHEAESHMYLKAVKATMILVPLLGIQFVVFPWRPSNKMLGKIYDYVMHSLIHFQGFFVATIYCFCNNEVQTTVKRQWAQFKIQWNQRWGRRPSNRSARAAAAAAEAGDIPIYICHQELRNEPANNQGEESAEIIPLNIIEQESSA
# T1 sequence (looked up) 2: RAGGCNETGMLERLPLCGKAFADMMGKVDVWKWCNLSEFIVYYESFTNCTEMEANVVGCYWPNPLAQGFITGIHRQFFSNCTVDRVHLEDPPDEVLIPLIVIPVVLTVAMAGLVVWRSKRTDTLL
# T2: human calcitonin receptor (human, UniProt P30988 25-474)
# T2 sequence (looked up): T1 sequence (looked up) 1
# B1: N^α1-[(4S)-4-carboxy-4-(19-carboxynonadecanoylamino)butanoyl]-[Glu14,Arg17,Pro21,Pro27]-h-amylin (peptide)
# peptide: KCNTATCATQRLAEFLRHSSPNFGAIPSSTNVGSNTY
# modifications: C20 diacid-gGlu on the alpha amino group of the N-terminal residue (position 1); disulfide bridge Cys2-Cys7; C-terminal amide
# notes: also called compound 9
# B2: N^α1-[(4S)-4-carboxy-4-(19-carboxynonadecanoylamino)butanoyl]-[Glu14,Arg17,Pro21,Pro25,Pro28,Pro29,Pro37]-h-amylin (peptide)
# peptide: {C20 diacid-γGlu}-KCNTATCATQRLAEFLRHSSPNFGPILPPTNVGSNTP-NH2
# modifications: disulfide 2-7
# SMILES: CC[C@H](C)[C@H](NC(=O)[C@@H]1CCCN1C(=O)CNC(=O)[C@H](Cc1ccccc1)NC(=O)[C@H](CC(N)=O)NC(=O)[C@@H]1CCCN1C(=O)[C@H](CO)NC(=O)[C@H](CO)NC(=O)[C@H](Cc1c[nH]cn1)NC(=O)[C@H](CCCNC(=N)N)NC(=O)[C@H](CC(C)C)NC(=O)[C@H](Cc1ccccc1)NC(=O)[C@H](CCC(=O)O)NC(=O)[C@H](C)NC(=O)[C@H](CC(C)C)NC(=O)[C@H](CCCNC(=N)N)NC(=O)[C@H](CCC(N)=O)NC(=O)[C@@H](NC(=O)[C@H](C)NC(=O)[C@@H]1CSSC[C@H](NC(=O)[C@H](CCCCN)NC(=O)CC[C@H](NC(=O)CCCCCCCCCCCCCCCCCCC(=O)O)C(=O)O)C(=O)N[C@@H](CC(N)=O)C(=O)N[C@@H]([C@@H](C)O)C(=O)N[C@@H](C)C(=O)N[C@@H]([C@@H](C)O)C(=O)N1)[C@@H](C)O)C(=O)N[C@@H](CC(C)C)C(=O)N1CCC[C@H]1C(=O)N1CCC[C@H]1C(=O)N[C@H](C(=O)N[C@@H](CC(N)=O)C(=O)N[C@H](C(=O)NCC(=O)N[C@@H](CO)C(=O)N[C@@H](CC(N)=O)C(=O)N[C@H](C(=O)N1CCC[C@H]1C(N)=O)[C@@H](C)O)C(C)C)[C@@H](C)O
# notes: also called compound 4
# B3: N^α1-[(4S)-4-carboxy-4-(19-carboxynonadecanoylamino)butanoyl]-[Glu14,Arg17,Pro21,Pro26]-h-amylin (peptide)
# peptide: {C20 diacid-γGlu}-KCNTATCATQRLAEFLRHSSPNFGAPLSSTNVGSNTY-NH2
# modifications: disulfide 2-7
# SMILES: CC(C)C[C@H](NC(=O)[C@H](CCCNC(=N)N)NC(=O)[C@H](CCC(N)=O)NC(=O)[C@@H](NC(=O)[C@H](C)NC(=O)[C@@H]1CSSC[C@H](NC(=O)[C@H](CCCCN)NC(=O)CC[C@H](NC(=O)CCCCCCCCCCCCCCCCCCC(=O)O)C(=O)O)C(=O)N[C@@H](CC(N)=O)C(=O)N[C@@H]([C@@H](C)O)C(=O)N[C@@H](C)C(=O)N[C@@H]([C@@H](C)O)C(=O)N1)[C@@H](C)O)C(=O)N[C@@H](C)C(=O)N[C@@H](CCC(=O)O)C(=O)N[C@@H](Cc1ccccc1)C(=O)N[C@@H](CC(C)C)C(=O)N[C@@H](CCCNC(=N)N)C(=O)N[C@@H](Cc1c[nH]cn1)C(=O)N[C@@H](CO)C(=O)N[C@@H](CO)C(=O)N1CCC[C@H]1C(=O)N[C@@H](CC(N)=O)C(=O)N[C@@H](Cc1ccccc1)C(=O)NCC(=O)N[C@@H](C)C(=O)N1CCC[C@H]1C(=O)N[C@@H](CC(C)C)C(=O)N[C@@H](CO)C(=O)N[C@@H](CO)C(=O)N[C@H](C(=O)N[C@@H](CC(N)=O)C(=O)N[C@H](C(=O)NCC(=O)N[C@@H](CO)C(=O)N[C@@H](CC(N)=O)C(=O)N[C@H](C(=O)N[C@@H](Cc1ccc(O)cc1)C(N)=O)[C@@H](C)O)C(C)C)[C@@H](C)O
# notes: also called compound 7
# B4: N^α1-[(4S)-4-carboxy-4-(19-carboxynonadecanoylamino)butanoyl]-[Glu14,Arg17,Pro21,Pro25,Pro28,Pro29]-h-amylin (peptide)
# peptide: {C20 diacid-γGlu}-KCNTATCATQRLAEFLRHSSPNFGPILPPTNVGSNTY-NH2
# modifications: disulfide 2-7
# SMILES: CC[C@H](C)[C@H](NC(=O)[C@@H]1CCCN1C(=O)CNC(=O)[C@H](Cc1ccccc1)NC(=O)[C@H](CC(N)=O)NC(=O)[C@@H]1CCCN1C(=O)[C@H](CO)NC(=O)[C@H](CO)NC(=O)[C@H](Cc1c[nH]cn1)NC(=O)[C@H](CCCNC(=N)N)NC(=O)[C@H](CC(C)C)NC(=O)[C@H](Cc1ccccc1)NC(=O)[C@H](CCC(=O)O)NC(=O)[C@H](C)NC(=O)[C@H](CC(C)C)NC(=O)[C@H](CCCNC(=N)N)NC(=O)[C@H](CCC(N)=O)NC(=O)[C@@H](NC(=O)[C@H](C)NC(=O)[C@@H]1CSSC[C@H](NC(=O)[C@H](CCCCN)NC(=O)CC[C@H](NC(=O)CCCCCCCCCCCCCCCCCCC(=O)O)C(=O)O)C(=O)N[C@@H](CC(N)=O)C(=O)N[C@@H]([C@@H](C)O)C(=O)N[C@@H](C)C(=O)N[C@@H]([C@@H](C)O)C(=O)N1)[C@@H](C)O)C(=O)N[C@@H](CC(C)C)C(=O)N1CCC[C@H]1C(=O)N1CCC[C@H]1C(=O)N[C@H](C(=O)N[C@@H](CC(N)=O)C(=O)N[C@H](C(=O)NCC(=O)N[C@@H](CO)C(=O)N[C@@H](CC(N)=O)C(=O)N[C@H](C(=O)N[C@@H](Cc1ccc(O)cc1)C(N)=O)[C@@H](C)O)C(C)C)[C@@H](C)O
# notes: also called compound 6
# B5: N^α1-[2-[2-[2-[[2-[2-[2-[[(4S)-4-carboxy-4-(19-carboxynonadecanoylamino)butanoyl]amino]ethoxy]ethoxy]acetyl]amino]ethoxy]ethoxy]acetyl]-[Glu14,Arg17,Pro21,Pro27 … (peptide)
# peptide: {C20 diacid-γGlu-AEEA-AEEA}-KCNTATCATQRLAEFLRHSSPNFGAIPSSTNVGSNTP-NH2
# modifications: disulfide 2-7
# SMILES: CC[C@H](C)[C@H](NC(=O)[C@H](C)NC(=O)CNC(=O)[C@H](Cc1ccccc1)NC(=O)[C@H](CC(N)=O)NC(=O)[C@@H]1CCCN1C(=O)[C@H](CO)NC(=O)[C@H](CO)NC(=O)[C@H](Cc1c[nH]cn1)NC(=O)[C@H](CCCNC(=N)N)NC(=O)[C@H](CC(C)C)NC(=O)[C@H](Cc1ccccc1)NC(=O)[C@H](CCC(=O)O)NC(=O)[C@H](C)NC(=O)[C@H](CC(C)C)NC(=O)[C@H](CCCNC(=N)N)NC(=O)[C@H](CCC(N)=O)NC(=O)[C@@H](NC(=O)[C@H](C)NC(=O)[C@@H]1CSSC[C@H](NC(=O)[C@H](CCCCN)NC(=O)COCCOCCNC(=O)COCCOCCNC(=O)CC[C@H](NC(=O)CCCCCCCCCCCCCCCCCCC(=O)O)C(=O)O)C(=O)N[C@@H](CC(N)=O)C(=O)N[C@@H]([C@@H](C)O)C(=O)N[C@@H](C)C(=O)N[C@@H]([C@@H](C)O)C(=O)N1)[C@@H](C)O)C(=O)N1CCC[C@H]1C(=O)N[C@@H](CO)C(=O)N[C@@H](CO)C(=O)N[C@H](C(=O)N[C@@H](CC(N)=O)C(=O)N[C@H](C(=O)NCC(=O)N[C@@H](CO)C(=O)N[C@@H](CC(N)=O)C(=O)N[C@H](C(=O)N1CCC[C@H]1C(N)=O)[C@@H](C)O)C(C)C)[C@@H](C)O
# notes: also called compound 20
# B6: N^α1-[(4S)-4-carboxy-4-(19-carboxynonadecanoylamino)butanoyl]-[Glu14,Arg17,Pro21,Pro26,Pro37]-h-amylin (peptide)
# peptide: {C20 diacid-γGlu}-KCNTATCATQRLAEFLRHSSPNFGAPLSSTNVGSNTP-NH2
# modifications: disulfide 2-7
# SMILES: CC(C)C[C@H](NC(=O)[C@H](CCCNC(=N)N)NC(=O)[C@H](CCC(N)=O)NC(=O)[C@@H](NC(=O)[C@H](C)NC(=O)[C@@H]1CSSC[C@H](NC(=O)[C@H](CCCCN)NC(=O)CC[C@H](NC(=O)CCCCCCCCCCCCCCCCCCC(=O)O)C(=O)O)C(=O)N[C@@H](CC(N)=O)C(=O)N[C@@H]([C@@H](C)O)C(=O)N[C@@H](C)C(=O)N[C@@H]([C@@H](C)O)C(=O)N1)[C@@H](C)O)C(=O)N[C@@H](C)C(=O)N[C@@H](CCC(=O)O)C(=O)N[C@@H](Cc1ccccc1)C(=O)N[C@@H](CC(C)C)C(=O)N[C@@H](CCCNC(=N)N)C(=O)N[C@@H](Cc1c[nH]cn1)C(=O)N[C@@H](CO)C(=O)N[C@@H](CO)C(=O)N1CCC[C@H]1C(=O)N[C@@H](CC(N)=O)C(=O)N[C@@H](Cc1ccccc1)C(=O)NCC(=O)N[C@@H](C)C(=O)N1CCC[C@H]1C(=O)N[C@@H](CC(C)C)C(=O)N[C@@H](CO)C(=O)N[C@@H](CO)C(=O)N[C@H](C(=O)N[C@@H](CC(N)=O)C(=O)N[C@H](C(=O)NCC(=O)N[C@@H](CO)C(=O)N[C@@H](CC(N)=O)C(=O)N[C@H](C(=O)N1CCC[C@H]1C(N)=O)[C@@H](C)O)C(C)C)[C@@H](C)O
# notes: also called compound 5
# Target: T1, human amylin 3(a) receptor (human …)
# Assay: cell-based or functional assay
Ratio hCT/hAmylin funct.,hAmylin-R funct. EC50,Binder
7.4,0.175 nM,B1
1.2,0.06 nM,B2
4.5,0.255 nM,B3
5.7,0.128 nM,B4
3.6,0.08 nM,B5
1,0.162 nM,B6

# Target: T2, human calcitonin receptor
# Assay: cell-based or functional assay
row,hCTR funct. EC50,Binder
1,1.29 nM,B1
2,0.07 nM,B2
3,1.16 nM,B3
4,0.729 nM,B4
5,0.285 nM,B5
6,0.16 nM,B6

# Target: T1, human amylin 3(a) receptor (human …)
# Assay: SPA competition binding, displacement of 125I-rat amylin from membranes of Amylin 3(a)/CRE-luc BHK cells (Assay V)
# Description: The binding assay was performed using scintillation proximity assay (SPA) beads (RPNQ0001) from PerkinElmer and cell membranes from the Amylin 3(a)/CRE-luc cells (as described in Assay (II)) were used. Membranes were prepared in the following way; the cells were rinsed with PBS and incubated with Versene for approximately 5 min before harvesting. The cells were flushed with PBS and the cell-suspension was centrifuged for 5 min at 1000 rpm. Cells were homogenized (ultrathurrax) in a buffer containing 20 mM Na-HEPES and 10 mM EDTA (pH 7.4) and centrifuged at 20.000 rpm for 15 min. The resulting pellet was resuspended, homogenized and centrifuged (20.000 rpm, 15 min) in a buffer containing 20 mM Na-HEPES and 0.1 mM EDTA (pH 7.4, buffer 2). The resulting pellet was resuspended in buffer 2 and protein concentration was measured (BCA protein Assay, Pierce). The homogenate was kept cold during the whole procedure. The membranes were kept at −80° C. until use. The assay was performed in a 384 well Optiplate (PerkinElmer) in a total volume of 40 ul. Membranes were mixed with SPA beads. Final concentration of membranes 35 ng/μL final and SPA beads was 0.05 mg/well. Test-compounds were dissolved in DMSO and further diluted in assay buffer (50 mM Hepes, pH 7.4, 1 mM CaCl2, 5 mM MgCl₂, 0.1% OA and 0.02% Tween20). […] The final mixture was incubated with shaking at 400 rpm for 120 min at 25° C. prior to centrifugation (1500 rpm, 10 min). Samples were analyzed on TopCounter™ (Packard). The IC₅₀ was calculated using (one site binding competition analysis) GraphPad Prism5 as a measure of receptor affinity.
row,IC50,Binder
1,0.143 nM,B1
2,0.321 nM,B2
3,0.674 nM,B3
4,0.996 nM,B4
5,0.217 nM,B5
6,0.374 nM,B6
